Experimental data taken from patent publication US20260226179A1 (MAB DESIGNS, published 2026).
Where “and” joins values, the source holds several entries; their conditions need not be identical. Equal values may be shown once.

T1: human membrane-bound IL-6R subunit alpha (human, UniProt P08887 20-468)
T1 sequence: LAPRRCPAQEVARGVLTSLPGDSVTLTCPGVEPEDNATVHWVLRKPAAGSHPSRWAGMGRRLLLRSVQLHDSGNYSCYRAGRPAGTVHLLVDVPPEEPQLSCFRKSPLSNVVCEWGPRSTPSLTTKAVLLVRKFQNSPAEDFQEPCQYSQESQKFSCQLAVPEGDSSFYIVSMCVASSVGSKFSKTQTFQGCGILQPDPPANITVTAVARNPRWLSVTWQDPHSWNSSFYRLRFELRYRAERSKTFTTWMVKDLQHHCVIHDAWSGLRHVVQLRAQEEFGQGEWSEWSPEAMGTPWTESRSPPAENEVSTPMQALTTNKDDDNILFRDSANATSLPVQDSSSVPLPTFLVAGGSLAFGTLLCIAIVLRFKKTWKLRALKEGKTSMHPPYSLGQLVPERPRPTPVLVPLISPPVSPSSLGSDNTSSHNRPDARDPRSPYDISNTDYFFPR

T2: human soluble IL-6R (human, UniProt P08887 20-357)
T2 sequence: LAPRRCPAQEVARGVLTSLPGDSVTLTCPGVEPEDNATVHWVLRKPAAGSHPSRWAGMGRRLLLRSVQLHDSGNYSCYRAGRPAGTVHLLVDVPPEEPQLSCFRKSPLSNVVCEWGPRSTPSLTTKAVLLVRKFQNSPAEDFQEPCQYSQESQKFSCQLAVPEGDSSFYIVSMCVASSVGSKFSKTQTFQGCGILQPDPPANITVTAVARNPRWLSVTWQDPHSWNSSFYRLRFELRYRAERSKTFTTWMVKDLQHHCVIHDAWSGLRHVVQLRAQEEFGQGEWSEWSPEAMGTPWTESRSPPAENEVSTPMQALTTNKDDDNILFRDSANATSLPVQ

T3: human soluble IL-6R (human, UniProt P08887 20-357, limits assumed)
T3 sequence: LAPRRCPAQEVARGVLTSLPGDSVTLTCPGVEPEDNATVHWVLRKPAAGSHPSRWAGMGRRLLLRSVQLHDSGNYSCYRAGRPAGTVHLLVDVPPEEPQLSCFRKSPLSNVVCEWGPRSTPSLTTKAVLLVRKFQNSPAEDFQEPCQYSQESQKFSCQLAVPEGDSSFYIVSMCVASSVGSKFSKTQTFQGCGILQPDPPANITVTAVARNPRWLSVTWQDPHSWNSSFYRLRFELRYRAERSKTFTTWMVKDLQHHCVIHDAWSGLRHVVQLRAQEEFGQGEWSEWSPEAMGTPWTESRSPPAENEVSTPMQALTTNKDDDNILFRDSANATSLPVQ

T4: human membrane-bound IL-6R subunit alpha (human, UniProt P08887 20-468)
T4 sequence: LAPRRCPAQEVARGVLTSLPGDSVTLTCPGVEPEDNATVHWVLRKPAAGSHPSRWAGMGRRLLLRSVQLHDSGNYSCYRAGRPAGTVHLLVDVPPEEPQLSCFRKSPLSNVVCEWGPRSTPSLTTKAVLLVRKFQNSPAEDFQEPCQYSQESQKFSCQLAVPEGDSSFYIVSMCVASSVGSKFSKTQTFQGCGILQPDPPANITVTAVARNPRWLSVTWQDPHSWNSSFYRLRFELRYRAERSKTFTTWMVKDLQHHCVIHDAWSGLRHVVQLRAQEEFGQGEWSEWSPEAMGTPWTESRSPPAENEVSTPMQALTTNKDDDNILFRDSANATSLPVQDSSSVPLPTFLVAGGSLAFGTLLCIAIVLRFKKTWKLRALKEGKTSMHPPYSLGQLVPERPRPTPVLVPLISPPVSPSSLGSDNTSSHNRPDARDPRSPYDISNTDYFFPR

T5: mouse membrane-bound IL-6R subunit alpha (mouse, UniProt P22272 20-460)
T5 sequence: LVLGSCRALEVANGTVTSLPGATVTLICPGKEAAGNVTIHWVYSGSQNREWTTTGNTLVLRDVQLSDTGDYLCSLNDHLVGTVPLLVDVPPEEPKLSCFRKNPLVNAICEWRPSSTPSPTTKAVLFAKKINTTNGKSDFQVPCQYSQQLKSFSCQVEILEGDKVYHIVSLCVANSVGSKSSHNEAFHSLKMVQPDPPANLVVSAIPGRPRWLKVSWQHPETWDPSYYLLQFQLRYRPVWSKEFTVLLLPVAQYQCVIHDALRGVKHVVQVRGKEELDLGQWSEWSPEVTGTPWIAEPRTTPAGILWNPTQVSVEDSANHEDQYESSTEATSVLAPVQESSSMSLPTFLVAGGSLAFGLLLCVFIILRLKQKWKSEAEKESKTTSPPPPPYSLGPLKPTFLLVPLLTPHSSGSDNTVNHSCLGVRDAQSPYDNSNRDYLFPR

T6: murine soluble IL-6R (mouse, UniProt P22272 20-347, limits assumed)
T6 sequence: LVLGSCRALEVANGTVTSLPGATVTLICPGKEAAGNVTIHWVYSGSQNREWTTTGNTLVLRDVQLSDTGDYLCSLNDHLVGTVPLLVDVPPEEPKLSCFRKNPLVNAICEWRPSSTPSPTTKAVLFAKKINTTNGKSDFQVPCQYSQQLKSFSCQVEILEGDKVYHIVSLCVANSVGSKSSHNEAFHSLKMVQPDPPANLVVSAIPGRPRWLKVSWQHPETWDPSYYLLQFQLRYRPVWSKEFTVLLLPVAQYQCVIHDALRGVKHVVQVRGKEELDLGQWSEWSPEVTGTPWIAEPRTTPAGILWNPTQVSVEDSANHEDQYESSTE


Assays:
Assay in all cases: cell-based or functional assay
[1] = target: T1, human membrane-bound IL-6R subunit alpha
human soluble IL-6R [2] = target: T2, human soluble IL-6R
human soluble IL-6R [3] = target: T3, human soluble IL-6R
[4] = target: Hyper-IL-6 (recombinant fusion protein consisting of IL-6 and soluble IL-6R)
[5] = target: T4, human membrane-bound IL-6R subunit alpha; remark: listed apart in the source
[6] = target: T4, human membrane-bound IL-6R subunit alpha; remark: listed apart in the source
[7] = target: T4, human membrane-bound IL-6R subunit alpha; remark: listed apart in the source
[8] = target: T5, mouse membrane-bound IL-6R subunit alpha
murine soluble IL-6R = target: T6, murine soluble IL-6R
[9] = target: T5, mouse membrane-bound IL-6R subunit alpha; remark: listed apart in the source
human soluble IL-6R [10] = target: T3, human soluble IL-6R; remark: listed apart in the source
[11] = target: T4, human membrane-bound IL-6R subunit alpha; remark: listed apart in the source
[12] = target: T4, human membrane-bound IL-6R subunit alpha; remark: listed apart in the source

| IC50 for the inhibition of IL-6 classical signalling-induced proliferation (Ba/F3_gp130_IL-6R cells + IL-6) [1] [µg/mL] | IC50 for the inhibition of IL-6 mixed signalling-induced proliferation (Ba/F3_gp130_IL-6R cells + IL-6 + sIL-6R) [1] | Proliferation in % (Ba/F3_gp130 cells, IL-6 + sIL-6R = 100%; IL-6 trans signalling) at IgG 10 ng/ml (human soluble IL-6R [2]) [%] | Proliferation in % (Ba/F3_gp130 cells, IL-6 + sIL-6R = 100%; IL-6 trans signalling) at IgG 100 ng/ml (human soluble IL-6R [2]) [%] | Proliferation in % (Ba/F3_gp130 cells, IL-6 + sIL-6R = 100%; IL-6 trans signalling) at IgG 300 ng/ml (human soluble IL-6R [2]) [%] | Proliferation in % (Ba/F3_gp130 cells, IL-6 + sIL-6R = 100%; IL-6 trans signalling) at IgG 500 ng/ml (human soluble IL-6R [2]) [%] | Proliferation in % (Ba/F3_gp130 cells, IL-6 + sIL-6R = 100%; IL-6 trans signalling) at IgG 700 ng/ml (human soluble IL-6R [2]) [%] | Proliferation in % (Ba/F3_gp130 cells, IL-6 + sIL-6R = 100%; IL-6 trans signalling) at IgG 1,000 ng/ml (human soluble IL-6R [2]) [%] | Proliferation in % (Ba/F3_gp130 cells, IL-6 + sIL-6R = 100%; IL-6 trans signalling) at IgG 10,000 ng/ml (human soluble IL-6R [2]) [%] | Binder | further results |
| --- | --- | --- | --- | --- | --- | --- | --- | --- | --- | --- |
| > 10 | > 10 µg/ml and > 53 nM | 98.8 | 92.2 | 78.3 | 70.2 | 55.3 | 41.2 | 9.6 | anti-IL-6R IgG antibody C07 (antibody, V domains shown) VH: EVKLVESGGGLVQPGGSLKLSCAASGFTFSSYAMSWVRQTADKRLELVANINSNGGSTYYPDSVKGRFTISRDNAKNTLFLQMSSLKSEDTAMYYCAREGYYTMDYWGQGTSVTVSS VL: DIVLTQSPASLAVSPGQRATISCRASESVDSYGNSFMNWYQQKPGQPPKLLIYLASNLESGVPARFSGSGSRTDFTLTIDPVEADDAATYYCQQNNEDPYTFGGGTKLEIK | – |
| > 10 | > 10 µg/ml and > 53 nM | 103 | 88.5 | 84.8 | 52.8 | 36.1 | 16.3 | 6.5 | anti-IL-6R IgG antibody C20 (antibody, V domains shown) VH: EVKLMESGGGLVQPGGSLKLSCAASGFTFSNYGMSWVRQTPDKRLELVAIINSNGGSTYYPDSVKGRFTISRDNAKNTLYLQMSSLKSEDTAIYYCARDGNFVSDYWGQGTTLTVSS VL: DIVLTQSPASLAVSLGQRATISCRASESVDSYGNRFLNWYQQKPGQPPKLLIYLASNLESGVPARFSGSGSRTDFTLTIDPVEADDAATYYCQQNNEDPYTFGGGTKLEIK | – |
| – | – | – | – | – | – | – | – | – | anti-IL-6R IgG antibody 07 (C07 antibody, Fab chimerized with human IgG1) (antibody, V domains shown) VH: EVKLVESGGGLVQPGGSLKLSCAASGFTFSSYAMSWVRQTADKRLELVANINSNGGSTYYPDSVKGRFTISRDNAKNTLFLQMSSLKSEDTAMYYCAREGYYTMDYWGQGTSVTVSS VL: DIVLTQSPASLAVSPGQRATISCRASESVDSYGNSFMNWYQQKPGQPPKLLIYLASNLESGVPARFSGSGSRTDFTLTIDPVEADDAATYYCQQNNEDPYTFGGGTKLEIK | IC50 of inhibition of proliferation of Ba/F3_gp130 cells induced by 10 ng/ml IL-6 and 200 ng/ml sIL-6R (human soluble IL-6R [3]): 757 ng/ml and 5 nM; IC50 of inhibition of proliferation of Ba/F3_gp130 cells induced by 28 ng/ml Hy-IL-6 [4]: 644 ng/ml and 4.3 nM; Proliferation in % of Ba/F3_gp130_IL-6R cells (10 ng/ml IL-6 = 100%), IgG at 1 µg/ml [5]: 92%; Proliferation in % of Ba/F3_gp130_IL-6R cells (10 ng/ml IL-6 = 100%), IgG at 10 µg/ml [5]: 90.8%; Proliferation in % of Ba/F3_gp130_IL-6R cells with 10 ng/ml IL-6 and 200 ng/ml sIL-6R (mixed signalling), IgG at 1 µg/ml [6]: 93%; Proliferation in % of Ba/F3_gp130_IL-6R cells with 10 ng/ml IL-6 and 200 ng/ml sIL-6R (mixed signalling), IgG at 10 µg/ml [6]: 85.9%; IC50 for inhibition of IL-6 classical signalling-induced proliferation [7]: > 53 nM; Proliferation in % of Ba/F3_gp130_muIL-6R cells (10 ng/ml murine IL-6 = 100%), IgG at 10 µg/ml [8]: 101%; Proliferation in % of Ba/F3_gp130 cells (10 ng/ml murine IL-6 + 200 ng/ml murine soluble IL-6R = 100%), IgG at 10 µg/ml (murine soluble IL-6R): 104%; Proliferation in % of Ba/F3_gp130_muIL-6R cells (10 ng/ml murine IL-6 + 200 ng/ml murine soluble IL-6R = 100%, mixed signalling), IgG at 10 µg/ml [9]: 108%; STAT3 phosphorylation in % in HEK293 cells (10 ng/ml IL-6 + 200 ng/ml sIL-6R for 30 min = 100%), IgG at 1 µg/ml (human soluble IL-6R [10]): 2.8%; STAT3 phosphorylation in % in HEK293_IL-6R cells (10 ng/ml IL-6 for 30 min = 100%), IgG at 1 µg/ml [11]: 86.2%; STAT3 phosphorylation in % in HEK293_IL-6R cells (10 ng/ml IL-6 + 200 ng/ml sIL-6R = 100%, mixed signalling), IgG at 1 µg/ml [12]: 105% |
